Source: patent US7626003B2, “Genetically engineered cDNA of rat bcl-x gene and an improved protein” (priority 1999, dated 2009)
Changes are numbered by the printed parent chain.

B1: TAT-Bcl-xFNK: Bcl-xFNK in which a protein-transduction-domain peptide of HIV TAT protein is fused at the N-terminal (protein)
chain: YGRKKRRQRRRMSQSNRELVVDFLSYKLSQKGFSWSNFSDVEENRTEAPEETEPERETPSAINGNPSWHLADSPAVNGATGHSSSLDAREVIPMAAVKQALREAGDEFELRYRRAFSDLTSQLHITPGTAYQSFEQVVNELFRDGVNWGRIVAFFSFGGALCVESVDKEMQVLVSKIASWMATYLNDHLEPWIQENGGWDTFVDLYGNNAAAESRKGQERFNRWFLTGMTVAGVVLLGSLFSRK
B2: Bcl-xFNK: improved protein of rat Bcl-xL, SEQ ID NO: 3, with substitutions Tyr22Phe; Gln26Asn; Arg165Lys (protein)
chain: MSQSNRELVVDFLSYKLSQKGFSWSNFSDVEENRTEAPEETEPERETPSAINGNPSWHLADSPAVNGATGHSSSLDAREVIPMAAVKQALREAGDEFELRYRRAFSDLTSQLHITPGTAYQSFEQVVNELFRDGVNWGRIVAFFSFGGALCVESVDKEMQVLVSKIASWMATYLNDHLEPWIQENGGWDTFVDLYGNNAAAESRKGQERFNRWFLTGMTVAGVVLLGSLFSRK
modifications: Artificial Sequence Modified Protein of SEQ ID NO 2
notes: Gln26Asn; Arg165Lys
B3: Bcl-xL: wild-type protein expressed from the rat bcl-x gene, SEQ ID NO: 2 (protein, listed as Rattus norvegicus)
chain: B2 chain with F22Y, N26Q, K165R

Key:
[1] = test system: chondrocyte of cartilage slice from Osteoarthritis patients; assay: Cell death-inhibiting activity in chondrocytes of cartilage slice culture; assay type: cell-based, human; settings: 0.2 μM in culture medium, up to day 9, hematoxylin-eosin (FIGS. 19-24)
Description: Cartilage was obtained from the femoral bone head of Osteoarthritis patients undergoing total hip arthroplasty. The cartilage tissue above the subchondral bone (10×10 mm; 1.2 mm in thickness) was aseptically sliced using a single-edged razor. The cartilage slice was placed in a 24-well plate and incubated with a DMEM/Ham F-12 mixed medium (Life Technologies) containing 20% FBS (fetal bovine serum) at 37° C. in a CO2 incubator. For a comparative experiment, the expression vector of TAT-Bcl-xL was constructed in the same manner as TAT-Bcl-xFNK, and TAT-Bcl-xL protein was partially purified from Escherichia coli (TAT-Bcl-xL preparation has the same purity). TAT-Bcl-xFNK (prepared from the inclusion body) or TAT-Bcl-xL (prepared from the inclusion body) were added to the culture medium at a concentration of 0.2 μM. As a control, an equal amount of PBS (a solvent used to solubilize the proteins) containing 7M urea and 1 mM DTT was added. The culture medium containing the protein was changed on day 4 and day 7. After incubation for 4 days and 9 days, the cartilage slice was frozen to prepare frozen sections using a cryostat. The sections were stained with hematoxylin-eosin to evaluate the death of chondrocyte.

hepatocytes = assay: Inhibition of the death of hepatocytes caused by steroid hormone (dexamethasone) in mice; assay type: in vivo; settings: mouse, 100 μg intraperitoneal 3 hours before 0.5 mg dexamethasone i.p., liver sections 3 hours later (FIGS. 25-27)
Description: Three 8-week old mice ([…], 20 g body weight, female) were divided into 3 groups (A, B and C). To the mouse of Group A was intraperitonealy administered PBS solution (0.8 ml) containing 100 μg of TAT-Bcl-xFNK protein (prepared from the soluble fraction). To the mice of Group B and Group C (control) was intraperitonealy administered PBS (0.8 ml) in the same manner. The mice were put back into cages, and after a lapse of 3 hours 0.5 ml of 25% ethanol/PBS solution containing 0.5 mg of a steroid hormone (dexamethasone) was intraperitonealy administered to the mice of Group A and Group B. To the mouse of Group C was intraperitonealy administered 0.5 ml of 25% ethanol/PBS solution. They were put back into cages, and after a lapse of 3 hours killed. Their livers were taken out, and frozen to prepare frozen sections with a cryostat. The sections were stained with hematoxylin-eosin to evaluate the death of hepatocyte.

HeLa cells = assay: Incorporation of TAT-Bcl-xFNK protein in cells (immunofluorescence); assay type: cell-based; settings: 1 μM in medium, 24 hours, FITC immunofluorescence (FIG. 18)
Description: TAT-Bcl-xFNK protein (1 μM) was added to DMEM/F-12 (Life Technologies) containing 10% FBS (fetal bovine serum), a medium for HeLa cells cultured in a Slide Chamber (Lab-Tek), and the cells were incubated in a CO2 incubator for 24 hours. The cells were then washed twice with PBS. The cells were fixed with paraformaldehyde (4%) dissolved in PBS at room temperature for 45 min. The cells were washed 3 times with PBS (5 minutes/round), and incubated in PBS containing 10% FBS for 20 min. The cells were washed 3 times with PBS (5 minutes/round), and treated with 1.5% FBS-PBS solution containing an anti-rat Bcl-xL monoclonal antibody 35-32 (murine origin) for 30 min. The cells were washed 3 times with PBS (5 minutes/round), and treated with 1.5% FBS-PBS solution containing an anti-mouse IgG antibody conjugated with FITC, for 30 minutes. The cells were washed 3 times with PBS (5 minutes/round), mounted in PBS, and sealed to observe under a fluorescence microscope.

[2] = test system: human leukemia cell line Jurkat; assay: Dehydrogenase activity of Jurkat transfectants after heat treatment (WST-1 assay); assay type: cell-based; settings: 45° C. for 10 minutes, 1st day (FIG. 13)
Description: The cells were harvest by centrifugation, then suspended in an equal amount of the fresh culture medium, and incubated at 37° C. In addition, dehydrogenase activities of the cells (100 μl of the culture broth) were determined at 1st day using the Cell Counting Kit (Dojin Chemical) and WST-1 as a substrate (WST-1 Assay). The results are shown in FIG. 13, wherein the enzyme activity of the cells without heat treatment was taken as 100%.

[3] = test system: Chinese hamster ovary cell CHO; assay: Incubation of CHO transfectants in serum-free medium; assay type: cell-based
Description: The CHO cells (1×10^5 cells) were suspended in culture medium DMEM/F-12 (GIBCO BRL) containing 10% fetal bovine serum, and incubated in a 60-mm dish overnight. The linearized pEF1-BOSbcl-xY22F/Q26N/R165K (10 μg) and the linearized pST-neoB (0.5 μg) having a drug Geneticin-resistant gene were introduced into the CHO cells using a SuperFect Transfection Reagent kit (Qiagen). As a control, the linearized empty vector pEF1-BOS or the linearized pEF1-BOSbcl-x were introduced together with the linearized pST-neoB into the CHO cells. After the transfection treatment, the cells were incubated in culture medium DMEM/F-12 containing 10% fetal bovine serum overnight. Geneticin (700 μg/ml) was added, and the incubation was continued to yield the transfected cells. In the same manner as in Example 3, the transfectants expressing the improved protein Bcl-xFNK or the wild-type Bcl-xL abundantly and to the same level were selected. Thus, CHObcl-x, CHObcl-xFNK, and CHOvec (transfected with the empty vector) were obtained.
Three transfectants, CHObcl-x, CHObcl-xFNK, and CHOvec, prepared in Example 6 were incubated in culture medium DMEM/F-12 containing 10% fetal bovine serum. The cells (1×10^3 cells) were plated in a 100-mm dish containing the medium DMEM/F-12 containing 3% fetal bovine serum. […]

[4] = test system: murine premyeloid cell line FDC-P1; assay: Resistance of FDC-P1 transfectants to apoptosis induced by depletion of the cytokine IL-3; assay type: cell-based
Excerpt: (§1) For the transfectant FDC-P1bcl-xFNK cells prepared in Example 2, the resistance was examined to a variety of apoptosis-inducing stimuli. In these figures, the empty marks, ⋄, □, Δ, ∇, and ◯ represent 5 independent transfectants, FDC-P1bcl-xFNK-1, -2, -3, -4, and -5, respectively. […] The mark ▪ represents FDC-P1vec in which the empty vector plasmid DNA has been introduced.
The result are shown in FIG. 16, in which the number of the surviving cells immediately after depletion of IL-3 was taken as 100%. In this experiment, the cells other than FDC-P1vec were diluted 5 times with the fresh medium containing no IL-3 every 3rd day.

[5] = test system: human leukemia cell line Jurkat; assay: Resistance of Jurkat transfectants to apoptosis induced by serum withdrawal (trypan blue exclusion); assay type: cell-based; settings: serum-free RPMI1640, surviving cells counted daily (FIG. 3)
Description: The cells were washed 3 times with PBS and suspended in RPMI1640 medium containing no serum at 1×10^5 cells/ml. […] The number of the cells was carefully controlled to be less than 5×10^5 cells/ml. When the cell number was expected to exceed the limitation, the culture medium was diluted 2 fold. Every 3 days, the half of the serum-free medium was replaced with the fresh medium.

[6] = test system: human leukemia cell line Jurkat; assay: Resistance of Jurkat transfectants to heat treatment (trypan blue exclusion); assay type: cell-based; settings: 45° C. for 10 minutes (FIG. 12)
[7] = test system: human leukemia cell line Jurkat; assay: Resistance of Jurkat transfectants to anti-Fas antibody (trypan blue exclusion); assay type: cell-based; settings: anti-Fas antibody CH-11 1-1000 ng/ml, 1 day (FIG. 4)
Description: The results are shown in FIG. 4, wherein the number of the cells incubated without the antibody was taken as 100%.

[8] = test system: murine premyeloid cell line FDC-P1; assay: Resistance of FDC-P1 transfectants to TN-16 and staurosporine (WST-1 assay); assay type: cell-based; settings: TN-16 50 μM
Description: as §1
The cells were suspended in culture medium at 2×10^5 cells/ml, to which TN-16 (50 μM) and staurosporine (10 nM) was then added. The dehydrogenase activity of the cells (100 μl of the culture broth) was determined daily using the Cell Counting Kit (Dojin Chemical) and WST-1 as a substrate (WST-1 Assay). The enzyme activity was taken as 100% immediately before addition of the agents.

[9] = test system: human leukemia cell line Jurkat
Description: For the transfected Jurkatbcl-xFNK cells prepared in Example 2, the resistance (non-sensitivity) to a variety of apoptosis-inducing stimuli was examined.
The cells were suspended in RPMI1640 medium at 1×10^5 cells/ml, to which staurosporine (20 nM), TN-16 (10 μM), camptothecin (10 μM), hydroxyurea (1 mM), trichostatin A (0.25 μg/ml), hydrogen peroxide (0.05 mM), or paraquat (1 mM) was then added. And the cells were incubated. The surviving cells were counted by the trypan blue exclusion everyday.

Molecule	inhibition of the death of chondrocyte [1]	inhibition of degeneration of hepatic tissue and cell death caused by dexamethasone (hepatocytes)	incorporation of the protein into cells (HeLa cells)	dehydrogenase activity after heat treatment (WST-1) [2]	growth of transfected CHO cells in serum-free medium ([3]; DMEM/F-12 lacking serum from day 6, another 6 days (FIG. 17))	dying or dead cells in colonies in serum-free medium ([3]; compared with CHObcl-x expressing Bcl-xL (FIG. 17))	growth in the absence of IL-3 ([4]; medium without IL-3)	resistance to apoptosis induced by depletion of IL-3 ([4]; medium without IL-3 but with serum (FIG. 16))	survival of transfected cells after serum withdrawal [5]	resistance of transfected cells to heat treatment [6]	resistance of transfected cells to anti-Fas antibody [7]	resistance of transfected cells to TN-16 and staurosporine ([8]; FDC-P1 transfectants (5 independent), staurosporine 10 nM (FIGS. 14, 15))	dehydrogenase activity under TN-16 and staurosporine (WST-1) ([8]; FDC-P1 transfectants, staurosporine 10 nM, daily)	resistance of transfected cells to cytotoxic drugs [9]
B1	inhibits the death of chondrocyte more strongly than TAT-Bcl-xL	markedly inhibited	has passed through the cellular membrane and has been incorporated in the cells	–	–	–	–	–	–	–	–	–	–	–
B2	–	–	–	maintained at high level even after heat treatment	grew far better than CHOvec	fewer cells were dying or dead	could grow even in the absence of IL-3	higher resistance than the transfectant expressing the wild-type Bcl-xL	survived for a longer period than the wild-type Bcl-xL-expressing cells	high resistance to heat treatment	high resistance to the highly concentrated anti-Fas antibody	high resistance to treatment with TN-16 and staurosporine	maintained at high level	high resistance to all of the cytotoxic drugs tested
B3	–	–	–	–	–	–	–	–	survived longer than the control parent cells and the vector-transfected cells	–	–	–	–	–
